Reference: publication PMC3169596, “G4-DNA Formation in the HRAS Promoter and Rational Design of Decoy Oligonucleotides for Cancer Therapy”

Biological target: T1, MAZ-GST (UniProt P56270 1-477)
T1 sequence: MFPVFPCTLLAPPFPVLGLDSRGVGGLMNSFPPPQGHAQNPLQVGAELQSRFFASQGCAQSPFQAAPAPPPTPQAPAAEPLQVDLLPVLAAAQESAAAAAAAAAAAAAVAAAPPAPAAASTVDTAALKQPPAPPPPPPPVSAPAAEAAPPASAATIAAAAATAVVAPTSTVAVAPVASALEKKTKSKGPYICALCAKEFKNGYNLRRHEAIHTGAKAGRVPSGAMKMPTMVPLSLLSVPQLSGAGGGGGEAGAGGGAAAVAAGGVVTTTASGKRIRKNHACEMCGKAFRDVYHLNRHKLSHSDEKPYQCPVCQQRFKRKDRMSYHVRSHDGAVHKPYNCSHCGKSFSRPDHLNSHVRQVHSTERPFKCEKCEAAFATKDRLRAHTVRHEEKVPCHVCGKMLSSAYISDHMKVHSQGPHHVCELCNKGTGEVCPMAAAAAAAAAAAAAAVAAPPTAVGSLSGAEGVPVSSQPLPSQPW
Assay: EMSA; 50 mM KCl, pH 7.4, poly d(I-C); apparent Kd given for the HRAS quadruplexes together; EMSA: 20 mM Tris-HCl pH 8, 30 mM KCl, 1.5 mM MgCl2, 1 mM DTT, 8% glycerol, 5 mM NaF, 1 mM Na3VO4, 2.5 ng/ml poly[dI-dC], 30 min room temperature (Figure 6c: pH)
Settings: protein: recombinant; tags: GST; label: 33P; antiparallel intramolecular G4 in K+

## TCGGGTTGCGGGCGCAGGGCACGGGCG (structured_DNA) [qhras-1 (quadruplex hras-1, H1)]
  Kd: ~1500 nM
